Assays:
[1] = target: GFP-tagged ADP-ribosylation-deficient NuMA, NuMA^PARmut construct (UniProt Q14980); assay: co-IP; GFP-trap magnetic beads on the chromatin fraction of cells co-transfected with myc-TDP1 and treated with 10 uM H2O2 for 10 min on ice in the dark; immunoblot; three biological replicates
[2] = target: GFP-tagged ADP-ribosylation-deficient NuMA, NuMA^PARmut construct (UniProt Q14980); assay: co-IP; GFP-trap magnetic beads on whole-cell extracts (NP-40 lysis buffer with BaseMuncher endonuclease and ADP-HPD) of cells transfected with GFP-NuMA and co-transfected with myc-TDP1, untreated or treated with 10 uM H2O2 for 10 min on ice in the dark; 2 h at 4°C; immunoblot; three biological replicates

Sequence of UniProt Q14980 (Q14980 other isoform, or with tags, fused parts or gaps, change not shown): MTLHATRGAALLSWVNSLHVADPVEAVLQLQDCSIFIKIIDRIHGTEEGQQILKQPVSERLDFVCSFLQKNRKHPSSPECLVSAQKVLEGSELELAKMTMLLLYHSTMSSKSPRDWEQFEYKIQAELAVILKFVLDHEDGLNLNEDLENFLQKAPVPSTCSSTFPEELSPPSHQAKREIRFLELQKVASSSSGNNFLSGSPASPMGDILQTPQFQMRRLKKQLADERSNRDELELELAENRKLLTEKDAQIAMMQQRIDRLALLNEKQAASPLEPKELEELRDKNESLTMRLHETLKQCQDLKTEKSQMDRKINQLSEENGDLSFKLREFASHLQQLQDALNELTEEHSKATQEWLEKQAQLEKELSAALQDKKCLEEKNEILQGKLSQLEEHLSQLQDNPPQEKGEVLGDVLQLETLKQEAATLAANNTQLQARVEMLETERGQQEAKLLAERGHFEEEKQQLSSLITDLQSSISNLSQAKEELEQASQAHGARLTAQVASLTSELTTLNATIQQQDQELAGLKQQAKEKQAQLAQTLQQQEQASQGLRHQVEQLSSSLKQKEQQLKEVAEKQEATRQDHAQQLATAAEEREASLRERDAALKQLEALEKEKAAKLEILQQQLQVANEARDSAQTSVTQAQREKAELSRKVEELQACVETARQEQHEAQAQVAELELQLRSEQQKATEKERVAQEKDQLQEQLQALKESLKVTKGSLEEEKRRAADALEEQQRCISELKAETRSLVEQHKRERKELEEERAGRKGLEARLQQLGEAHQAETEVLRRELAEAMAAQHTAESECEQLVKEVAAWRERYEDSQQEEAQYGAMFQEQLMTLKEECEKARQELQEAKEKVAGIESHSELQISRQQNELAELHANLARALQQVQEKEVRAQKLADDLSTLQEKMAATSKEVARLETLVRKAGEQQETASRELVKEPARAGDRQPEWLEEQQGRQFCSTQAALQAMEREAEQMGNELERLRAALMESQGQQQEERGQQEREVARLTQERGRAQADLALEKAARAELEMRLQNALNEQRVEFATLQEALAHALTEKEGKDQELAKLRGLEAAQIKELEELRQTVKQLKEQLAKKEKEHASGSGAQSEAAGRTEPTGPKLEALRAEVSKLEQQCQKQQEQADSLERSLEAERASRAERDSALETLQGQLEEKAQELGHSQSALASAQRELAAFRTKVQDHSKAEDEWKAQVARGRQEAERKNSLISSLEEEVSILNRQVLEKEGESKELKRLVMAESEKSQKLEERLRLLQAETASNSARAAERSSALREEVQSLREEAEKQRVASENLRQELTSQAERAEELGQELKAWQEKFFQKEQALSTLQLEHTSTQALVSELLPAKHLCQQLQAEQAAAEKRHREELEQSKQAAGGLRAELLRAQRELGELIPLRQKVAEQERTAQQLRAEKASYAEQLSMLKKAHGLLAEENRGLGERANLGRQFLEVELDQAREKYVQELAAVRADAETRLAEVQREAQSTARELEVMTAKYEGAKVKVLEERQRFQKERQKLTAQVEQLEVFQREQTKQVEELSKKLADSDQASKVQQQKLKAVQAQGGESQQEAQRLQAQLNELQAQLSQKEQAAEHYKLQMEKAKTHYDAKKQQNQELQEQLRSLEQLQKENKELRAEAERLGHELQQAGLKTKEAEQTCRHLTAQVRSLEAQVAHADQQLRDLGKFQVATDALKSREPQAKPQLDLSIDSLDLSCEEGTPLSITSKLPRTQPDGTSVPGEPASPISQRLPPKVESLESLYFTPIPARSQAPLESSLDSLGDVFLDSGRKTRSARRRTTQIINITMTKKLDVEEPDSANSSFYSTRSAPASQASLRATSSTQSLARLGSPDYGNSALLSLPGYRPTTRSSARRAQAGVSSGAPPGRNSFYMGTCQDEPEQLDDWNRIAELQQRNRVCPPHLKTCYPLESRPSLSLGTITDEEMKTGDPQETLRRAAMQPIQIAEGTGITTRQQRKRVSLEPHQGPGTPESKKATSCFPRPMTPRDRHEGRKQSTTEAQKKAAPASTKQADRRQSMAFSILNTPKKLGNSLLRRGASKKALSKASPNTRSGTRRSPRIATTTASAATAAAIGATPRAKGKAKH

- percent lower interaction than with NuMA^WT (chromatin fraction, H2O2-treated cells) [1]: 50%
- percent decrease in interaction relative to NuMA^WT (H2O2-treated cells) [2]: 38 to 45%
- percent decrease in interaction relative to NuMA^WT (untreated cells) [2]: 38 to 45%
Substance: myc-TDP1 (tyrosyl DNA phosphodiesterase 1) (from UniProt Q9NUW8 1-608) (enzyme)

Reference: publication PMC12187637
